{
  "source": "patent US20100267626",
  "proteins": {"B1": {"name": "Recombinant TNKS2 (in vitro PARsylation assay) (protein)", "chain": "MSGRRCAGGGAACASAAAEAVEPAARELFEACRNGDVERVKRLVTPEKVNSRDTAGRKSTPLHFAAGFGRKDVVEYLLQNGANVQARDDGGLIPLHNACSFGHAEVVNLLLRHGADPNARDNWNYTPLHEAAIKGKIDVCIVLLQHGAEPTIRNTDGRTALDLADPSAKAVLTGEYKKDELLESARSGNEEKMMALLTPLNVNCHASDGRKSTPLHLAAGYNRVKIVQLLLQHGADVHAKDKGDLVPLHNACSYGHYEVTELLVKHGACVNAMDLWQFTPLHEAASKNRVEVCSLLLSYGADPTLLNCHNKSAIDLAPTPQLKERLAYEFKGHSLLQAAREADVTRIKKHLSLEMVNFKHPQTHETALHCAAASPYPKRKQICELLLRKGANINEKTKEFLTPLHVASEKAHNDVVEVVVKHEAKVNALDNLGQTSLHRAAYCGHLQTCRLLLSYGCDPNIISLQGFTALQMGNENVQQLLQEGISLGNSEADRQLLEAAKAGDVETVKKLCTVQSVNCRDIEGRQSTPLHFAAGYNRVSVVEYLLQHGADVHAKDKGGLVPLHNACSYGHYEVAELLVKHGAVVNVADLWKFTPLHEAAAKGKYEICKLLLQHGADPTKKNRDGNTPLDLVKDGDTDIQDLLRGDAALLDAAKKGCLARVKKLSSPDNVNCRDTQGRHSTPLHLAAGYNNLEVAEYLLQHGADVNAQDKGGLIPLHNAASYGHVDVAALLIKYNACVNATDKWAFTPLHEAAQKGRTQLCALLLAHGADPTLKNQEGQTPLDLVSADDVSALLTAAMPPSALPSCYKPQVLNGVRSPGATADALSSGPSSPSSLSAASSLDNLSGSFSELSSVVSSSGTEGASSLEKKEVPGVDFSITQFVRNLGLEHLMDIFEREQITLDVLVEMGHKELKEIGINAYGHRHKLIKGVERLISGQQGLNPYLTLNTSGSGTILIDLSPDDKEFQSVEEEMQSTVREHRDGGHAGGIFNRYNILKIQKVCNKKLWERYTHRRKEVSEENHNHANERMLFHGSPFVNAIIHKGFDERHAYIGGMFGAGIYFAENSSKSNQYVYGIGGGTGCPVHKDRSCYICHRQLLFCRVTLGKSFLQFSAMKMAHSPPGHHSVTGRPSVNGLALAEYVIYRGEQAYPEYLITYQIMRPEGMVDG"}},
  "biological_target": "T1, GST-Axin1 (a.a. 1-280), O35625",
  "T1 chain": "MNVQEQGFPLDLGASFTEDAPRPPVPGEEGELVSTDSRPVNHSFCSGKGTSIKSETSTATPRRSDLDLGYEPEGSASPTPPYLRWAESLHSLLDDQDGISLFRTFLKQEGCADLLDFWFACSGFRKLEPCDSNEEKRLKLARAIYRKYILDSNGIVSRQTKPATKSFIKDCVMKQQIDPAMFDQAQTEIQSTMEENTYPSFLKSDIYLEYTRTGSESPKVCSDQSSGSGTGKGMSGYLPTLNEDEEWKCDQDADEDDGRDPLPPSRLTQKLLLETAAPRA",
  "data": [
    {"protein": "B1", "values": [
      {"measurement": "in vitro PARsylation with biotin-NAD+ (SDS-PAGE, streptavidin probe)", "value": "TNKS2 was able to PARsylate an Axin1 fragment (a.a. 1-280) containing the TBD in vitro, which was completely inhibited by XAV939 treatment"}
    ]}
  ]
}
